{"source": "patent US20110294873A1", "about": "“Gene Transfer Vectors Comprising At Least One Isolated DNA Molecule Having Insulator Or Boundary Properties And Methods To Identify The Same” (UNIVERSITÉ DE LAUSANNE, priority 2008, published 2011)", "molecules": {"B1": {"name": "Ins2: 7 direct repeats of the CTF/NF1 binding site from adenovirus type II origin of replication, 5 bp spacing (nucleic acid)", "DNA": "ATCGATAAGCTTGCATTGGCAACGTGCCATAAGCATTGGCAACGTGCCATAAGCATTGGCAACGTGCCATAAGCATTGGCAACGTGCCATAAGCATTGGCAACGTGCCATAAGCATTGGCAACGTGCCATAAGCATTGGCAACGTGCCATAAGCGGGGGGATCC", "modifications": "7xCTF/NF1 from adenovirus type II"}}, "system": "Fr-MLV LTR enhancer acting on GFP gene in HeLa cells", "test": "First generation two-reporter (DsRed/GFP) enhancer-blocking assay, transient transfection, FACS", "assay_type": "cell-based, human", "conditions": "element interposed between enhancer and GFP gene", "description": "The strategy elaborated by Applicants to address the potential enhancer-blocking activity of genetic elements consists in setting up a two-reporter genes-assay whereby the potency of suspected insulators can be quantified. A series of plasmids were thus designed, containing a combination of two reporter genes: a DsRed gene, used as the assay system internal control, under the control of a Fr-MLV LTR enhancer/promoter, and a GFP gene under the control of a minimal CMV promoter, but also subjected to the influence of the LTR enhancer. […] By analyzing the expression of both reporter genes by flow cytometry, this system provides a standardized quantitative procedure to assess potential insulator elements. […]\nThe constructs described in FIG. 14 were used to transfect transiently HeLa cells. The expression of both DsRed and GFP was analyzed by FACS. […]\nHeLa cells were transfected with pAG1-3-HS4 (left panel) or pAG1-3-2HS4 (right panel) constructs (respectively constructs #4 and #5 on FIG. 30), and 100′000 cells were analyzed 48 hours later. […]\nHeLa cell populations transiently transfected with constructs containing either no cHS4 (noins) or a copy at the GFP extremity (HS4) or two copies flanking the GFP gene (2HS4) were analyzed by FACS. Percentages of GFP-expressing cells (left panel) and GFP mean fluorescence in RLU (right panel) are plotted for each case."}
{"molecule": "B1", "values": [{"measurement": "decrease of mean fluorescence of GFP-positive cells", "result": "approximately three-fold"}]}
